One molecule from publication PMC8396344, “Palmitoylation of Prolactin-Releasing Peptide Increased Affinity for and Activation of the GPR10, NPFF-R2 and NPFF-R1 Receptors: In Vitro Study” (International Journal of Molecular Sciences, 2021) can be followed below.

In general, Ki refers to the equilibrium dissociation constant of an inhibitor or competing ligand from its target.

Starred links: 1 amine or outer side, 2 acyl side, 3 side chain; linkers in the order of their positions; H or OH if unused. Groups on a side chain read outwards from the residue. No end group written: not given here. *: point of attachment. γGlu = O=C(O)[C@H](CCC(=O)[*:2])N[*:1]; Palmitoyl = CCCCCCCCCCCCCCCC(=O)*

Assay [1] addresses T1, ghrelin receptor (UniProt Q92847 1-366).
T1 construct: ghrelin receptor (growth hormone secretagogue receptor); also called GHSR; growth hormone secretagogue receptor; source: U2OS cells stably expressing the receptor, bought: Thermo Fisher Scientific; on cells
In words: radioligand binding; competition with 0.1 nM [^125I]-ghrelin on U2OS cells stably expressing GHSR; 50 mM Tris-Cl pH 7.4, 118 mM NaCl, 5 mM MgCl2, 4.7 mM KCl, 0.1% BSA; peptides 10^-12 to 10^-5 M; 60 min at RT; Ki by the Cheng-Prusoff equation. Particulars: one partner purified.

In assay [2] the target is T2, GPR10 (human, UniProt P49683 1-370).
T2 construct: prolactin-releasing peptide receptor GPR10, human; also called hGR3; GPR10 receptor; source: CHO-K1 cells stably expressing the receptor, bought: Thermo Fisher Scientific; on cells
T2 sequence (looked up): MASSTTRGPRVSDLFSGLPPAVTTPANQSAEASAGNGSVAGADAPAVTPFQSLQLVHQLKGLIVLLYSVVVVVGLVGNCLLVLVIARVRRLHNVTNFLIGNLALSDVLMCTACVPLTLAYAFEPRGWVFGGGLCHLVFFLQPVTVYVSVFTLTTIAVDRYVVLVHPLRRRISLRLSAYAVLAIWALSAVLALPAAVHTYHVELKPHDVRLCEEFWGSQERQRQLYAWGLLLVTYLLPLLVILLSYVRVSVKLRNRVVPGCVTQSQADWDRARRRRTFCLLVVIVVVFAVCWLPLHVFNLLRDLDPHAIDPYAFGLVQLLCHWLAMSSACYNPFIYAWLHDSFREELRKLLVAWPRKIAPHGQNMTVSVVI
In words: radioligand binding; competition with [^125I]-PrRP31 on CHO-K1 cells expressing human GPR10; Ki by the Cheng-Prusoff equation. Particulars: one partner purified.

Assay [3] concerns the target T3, kappa-opioid receptor (UniProt P41145 1-380). In words: cell-based or functional assay.
Assay [4] deals with T4, neuropeptide Y receptor Y5 (UniProt Q15761 1-445).
T4 sequence (looked up): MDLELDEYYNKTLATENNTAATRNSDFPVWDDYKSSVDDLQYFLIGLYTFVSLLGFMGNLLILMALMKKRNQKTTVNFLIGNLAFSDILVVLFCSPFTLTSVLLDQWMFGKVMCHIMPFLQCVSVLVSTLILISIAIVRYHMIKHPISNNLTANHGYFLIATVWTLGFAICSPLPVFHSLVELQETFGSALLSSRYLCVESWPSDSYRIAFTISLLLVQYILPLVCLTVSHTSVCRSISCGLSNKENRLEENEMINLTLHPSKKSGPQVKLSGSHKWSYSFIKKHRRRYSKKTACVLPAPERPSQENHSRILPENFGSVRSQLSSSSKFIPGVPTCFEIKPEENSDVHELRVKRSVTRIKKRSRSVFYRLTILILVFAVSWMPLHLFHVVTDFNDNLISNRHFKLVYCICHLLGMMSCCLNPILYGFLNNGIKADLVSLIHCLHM
In words: cell-based or functional assay.

Assay [5] addresses T1, ghrelin receptor. In words: cell-based or functional assay.
For assay [6], the target named is T2, GPR10. In words: cell-based or functional assay.
For assay [7], the target named is T3, kappa-opioid receptor. In words: radioligand binding; competition with [^125I]-dynorphin A on plasma membranes of CHO-K1 cells with KOR, 5 µg protein/tube; 50 mM Tris-HCl pH 7.4, 60 mM NaCl, 1 mM MgCl2, 0.5% BSA; 60 min at RT; filtration; Ki by the Cheng-Prusoff equation. Particulars: one partner purified.
In assay [8] the target is T5, neuropeptide Y receptor Y1 (UniProt P25929 1-384).
T5 construct: receptor of NPY, Y1; source: U2OS cells stably expressing the receptor, bought: Thermo Fisher Scientific; on cells
T5 sequence (looked up): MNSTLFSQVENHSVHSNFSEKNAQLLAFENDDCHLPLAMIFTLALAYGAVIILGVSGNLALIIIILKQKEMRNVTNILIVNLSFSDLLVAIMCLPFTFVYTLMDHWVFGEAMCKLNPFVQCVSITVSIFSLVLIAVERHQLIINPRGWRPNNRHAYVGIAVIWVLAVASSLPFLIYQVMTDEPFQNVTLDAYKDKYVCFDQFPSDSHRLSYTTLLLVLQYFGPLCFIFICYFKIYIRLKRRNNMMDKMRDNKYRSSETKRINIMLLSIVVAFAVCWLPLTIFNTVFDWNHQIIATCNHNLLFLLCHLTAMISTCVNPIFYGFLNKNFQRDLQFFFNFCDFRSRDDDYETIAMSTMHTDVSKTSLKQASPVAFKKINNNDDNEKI
In words: radioligand binding; competition with 0.1 nM [^125I]-PYY on U2OS cells with Y1, Y2 or Y5; 25 mM HEPES, 120 mM NaCl, 5 mM MgCl2, 4.7 mM KCl, 1 mM CaCl2, 0.5% BSA, 2 g/L glucose; peptides 10^-12 to 10^-5 M; 60 min at RT; Ki by the Cheng-Prusoff equation. Particulars: one partner purified.

The target of assay [9] is T4, neuropeptide Y receptor Y5. Described as above. Particulars: one partner purified.
Assay [10] addresses T6, neuropeptide Y receptor Y2 (UniProt P49146 1-381).
T6 construct: receptor of NPY, Y2; source: U2OS cells stably expressing the receptor, bought: Thermo Fisher Scientific; on cells
T6 sequence (looked up): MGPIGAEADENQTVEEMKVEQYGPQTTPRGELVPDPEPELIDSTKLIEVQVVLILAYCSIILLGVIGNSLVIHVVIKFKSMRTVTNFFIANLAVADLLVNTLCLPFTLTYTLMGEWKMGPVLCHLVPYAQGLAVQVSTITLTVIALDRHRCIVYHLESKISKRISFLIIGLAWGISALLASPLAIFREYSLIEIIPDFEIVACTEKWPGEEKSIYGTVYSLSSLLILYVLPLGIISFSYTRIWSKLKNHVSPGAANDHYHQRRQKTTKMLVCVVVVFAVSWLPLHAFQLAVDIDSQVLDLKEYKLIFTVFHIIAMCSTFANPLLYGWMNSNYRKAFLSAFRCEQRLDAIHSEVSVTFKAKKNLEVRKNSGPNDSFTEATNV
Described as above. Conditions: one partner purified.

The target of the next assay is T7, NPFF-R1 (UniProt Q9GZQ6 1-430).
T7 construct: also called NPFF-1R; source: CHO-K1 cell line, bought: Perkin Elmer
In words: radioligand binding; competition with [^125I]-1DMe on plasma membranes of CHO-K1 cells with NPFF-R2 or NPFF-R1, 5 µg protein/tube; 50 mM Tris-HCl pH 7.4, 60 mM NaCl, 1 mM MgCl2, 0.5% BSA; 60 min at RT; filtration; Ki by the Cheng-Prusoff equation. Conditions: one partner purified.

The next assay addresses T8, NPFF-R2 (UniProt Q9Y5X5 1-522).
T8 construct: also called NPFF-2R; source: CHO-K1 cell line (AequoScreen), bought: Perkin Elmer
The description is as above. Particulars: one partner purified.

B1: Palm^11-PrRP31 (peptide)
peptide: SRTHRHSMEIK([γGlu-Palmitoyl])TPDINPAWYASRGIRPVGRF-NH2
notes: analog of human PrRP31 with Arg11 replaced by Lys11 that carries palmitic acid through a gamma-Glu linker; numbers count on: the peptide PrRP31; source: synthetic peptide, palmitoylated on resin, purified (HPLC, purity greater than 95%)
On to B1, for which the Ki is 2800 nM in the assay with ghrelin receptor [1]; 3.44 nM in the assay with GPR10 [2]; 4280 nM in the assay with kappa-opioid receptor [7]; more than 10000 nM in [8]; 362 nM in assay [9]; more than 10000 nM in [10]. The Ki with NPFF-R1 worked out at 13.5 nM; in the assay with NPFF-R2 it was 7.66 nM. Further, the “EC50, agonist mode, β-lactamase reporter assay” value with kappa-opioid receptor [3] is more than 10000 nM; in [4] it was 583 nM; with ghrelin receptor [5] it was 1070 nM; with GPR10 [6], 0.0391 nM.
